Like-named read-outs stand apart in the source and are kept apart here.
T1: recombinant HLA-DQ2.5/33mer gliadin peptide complex (human; wheat)
T1 construct: also called soluble HLA-DQ2.5/33mer gliadin peptide complex
T1 alpha: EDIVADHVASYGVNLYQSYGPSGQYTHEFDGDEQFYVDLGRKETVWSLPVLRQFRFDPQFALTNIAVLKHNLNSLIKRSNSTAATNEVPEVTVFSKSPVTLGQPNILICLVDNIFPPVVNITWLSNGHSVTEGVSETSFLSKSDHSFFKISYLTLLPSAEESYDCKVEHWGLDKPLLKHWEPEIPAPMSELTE
T1 beta: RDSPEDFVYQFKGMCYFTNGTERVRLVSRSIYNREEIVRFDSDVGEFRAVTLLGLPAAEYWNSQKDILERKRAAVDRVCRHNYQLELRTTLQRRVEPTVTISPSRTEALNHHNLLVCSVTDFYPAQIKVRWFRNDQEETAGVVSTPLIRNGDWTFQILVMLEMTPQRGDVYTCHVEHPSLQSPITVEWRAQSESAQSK
T1 peptide: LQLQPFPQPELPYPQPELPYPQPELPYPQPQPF

T2: HLA-DQ2.5 on Ba/F3 cells (not in the form of a complex with a linked peptide) (human, UniProt P01909 24-254; P01920 33-261)
T2 construct: also called Ba/F3-HLA-DQ2.5; No peptide
T2 MHC II alpha: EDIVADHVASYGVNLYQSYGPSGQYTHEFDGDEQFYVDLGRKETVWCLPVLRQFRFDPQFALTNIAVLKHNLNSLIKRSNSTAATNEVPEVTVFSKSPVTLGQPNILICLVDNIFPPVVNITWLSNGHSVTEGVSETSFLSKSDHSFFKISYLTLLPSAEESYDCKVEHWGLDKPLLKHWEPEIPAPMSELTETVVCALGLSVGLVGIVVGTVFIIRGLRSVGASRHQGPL
T2 MHC II beta: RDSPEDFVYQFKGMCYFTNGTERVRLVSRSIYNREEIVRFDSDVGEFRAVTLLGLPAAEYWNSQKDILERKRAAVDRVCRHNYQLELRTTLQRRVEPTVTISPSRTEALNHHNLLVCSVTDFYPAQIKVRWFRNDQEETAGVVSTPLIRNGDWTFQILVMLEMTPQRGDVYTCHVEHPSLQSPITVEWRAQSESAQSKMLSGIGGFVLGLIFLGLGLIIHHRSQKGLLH

T3: HLA-DQ2.5 on HLA-DQ2.5 positive PBMC-B cells (human, UniProt P01909 24-254; P01920 33-261)
T3 construct: also called DQ2.5 + PBMC; HLA-DQ2.5+PBMC B cell
T3 MHC II alpha: T2 MHC II alpha
T3 MHC II beta: T2 MHC II beta

B1: DQN0271hh (antibody, human IgG1, kappa, V domains shown)
VH: QSLEESGGGLVKPGASLTLTCKASGFSFSSGYYMCWVRQAPGKGLEWIACIYAGSPDLTYYATWAKGRLTISTTSSTTVTLQLTSLTAADTATYFCARDPGNWGGYDDVRLWGPGTLVTVSS
VL: AQVLTQTPSPVSAAVGGTVTISCQSSQSIYSNYLSWFQQKTGQPPKLLIYRASTLASGVPSRFKGSGSGTEFTLTISGVECDDAATYYCQGYYSGAIWTFGGGTKVEIKR
notes: also called DQN0271Lh
B2: DQN0282ff (antibody, human IgG1, kappa, V domains shown)
VH: QSVEESGGRLVTPGTPLTLSCKASGFDFSIYYMSWVRQAPGKGLEWIGVINSGGGVTWYASWVKGRFTISKTSTTVDLKITSPTTEDTATYFCARLGDSNHYDLWGPGTLVTVSS
VL: AYDMTQTPSSVSAAVGGTVTIKCQASETISSYLAWYQQKPGQRPQLLIYDASNLASGVPSRFKGSGSGTEFTLTISDLECADAATYYCQTHYYITSTTFGGGTKVEIKR
notes: also called DQN0282Hf; DQN0282Lf
B3: DQN0334bb (antibody, human IgG1, kappa, V domains shown)
VH: QQQLEESGGDLVQPEGSLTLTCKASGFDFSFNAMCWVRQAPGRGPEWIACIYNGNGSTYYASWAKGRFTISKTSSTSVTLQMTSLTAADTATYFCARGGYGLGYAGYGDVNYFNLWGPGTLVTVSS
VL: AVVLTQTASPVSAPVGGTVTIKCQASEDIYFLLAWYRQKPGQPPKLLIYGASTLASGVPSRFKGSGSGTEYTLTISDLECADAATYYCQSYWYGDSGPNTFGGGTKVEIKR
notes: also called DQN0334Hb; DQN0334Lb
B4: DQN0225dd (antibody, human IgG1, kappa, V domains shown)
VH: QSLEESGGGLVKPGGTLTLTCTASGFSFSSAYYMCWVRQAPGKGLEWIACIYVGSGSTYYASWAQGRCTISKASSTTVTLQMTSLTAADTATYFCARDPLIYYYYGELNLWGPGTLVTVSS
VL: AVVLTQTASPVSAPVGGTVTIKCQASEDISSNLAWYQQKPGQRPKVLIYSASTLASGVSSQFKGSGSGTQFTLTISDLECADAATYYCQSYYDISSVTFGGGTKVEIKR
notes: also called DQN0225Hd; DQN0225Ld
B5: DQN0324hh (antibody, human IgG1, kappa, V domains shown)
VH: QSLEESGGDLVKPGASLALTCTASGFSLINNYYMCWVRQAPGKGLEWIACIYAGLGGWTYYASWAKGRFTISKTSSTTVTLQMSSLTVADAATYFCARAATTYYHFNLWGPGTLVTVSS
VL: AVVLTQTESPVSAAVGDTVTIKCQASQSIGNALAWYQQKPGQPPKLLIYDASTLASGVPSRFKGSGSGTQFTLTISDLECADAATYYCQSYDYGSSADTYTFGGGTKVEIKR
notes: also called DQN0324Lh

Key:
[1] = molecular target: T4, HLA-DQ2.5/33mer gliadin peptide complex on Ba/F3 cells (human; wheat); experiment: cell-based or functional assay
[2] = molecular target: T1, recombinant HLA-DQ2.5/33mer gliadin …; experiment: SPR, Ab captured, 37 C, pH 7.4
[3] = molecular target: T4, HLA-DQ2.5/33mer gliadin peptide complex …; experiment: FACS
[4] = molecular target: T5, HLA-DQ2.5/CLIP peptide complex on Ba/F3 cells (human); experiment: FACS
T5 construct: also called Ba/F3-HLA-DQ2.5/CLIP peptide

[5] = molecular target: T6, HLA-DQ2.5/omega 2 gliadin peptide complex on Ba/F3 cells (human; wheat); experiment: FACS
T6 construct: also called Ba/F3-HLA-DQ2.5/omega 2 gliadin peptide

[6] = molecular target: T7, HLA-DQ2.5/alpha 2 gliadin peptide complex on Ba/F3 cells (human; wheat); experiment: FACS
T7 construct: also called Ba/F3-HLA-DQ2.5/alpha 2 gliadin peptide

[7] = molecular target: T2, HLA-DQ2.5 on Ba/F3 cells (not in the …); experiment: FACS
[8] = molecular target: T8, HLA-DQ2.5/alpha 1b gliadin peptide complex on Ba/F3 cells (human; wheat); experiment: FACS
T8 construct: also called Ba/F3-HLA-DQ2.5/alpha 1b gliadin peptide

[9] = molecular target: T9, HLA-DQ2.5/omega 1 gliadin peptide complex on Ba/F3 cells (human; wheat); experiment: FACS
T9 construct: also called Ba/F3-HLA-DQ2.5/omega 1 gliadin peptide

[10] = molecular target: T10, HLA-DQ2.5/alpha 1 gliadin peptide complex on Ba/F3 cells (human; wheat); experiment: FACS
T10 construct: also called Ba/F3-HLA-DQ2.5/alpha 1 gliadin peptide

[11] = molecular target: T11, HLA-DQ2.5/secalin 2 peptide complex on Ba/F3 cells (human; rye); experiment: FACS
T11 construct: also called Ba/F3-HLA-DQ2.5/secalin 2 peptide

[12] = molecular target: T12, HLA-DQ2.5/secalin 1 peptide complex on Ba/F3 cells (human; rye); experiment: FACS
T12 construct: also called Ba/F3-HLA-DQ2.5/secalin 1 peptide

[13] = molecular target: T3, HLA-DQ2.5 on HLA-DQ2.5 positive PBMC-B …; experiment: FACS
[14] = molecular target: T1, recombinant HLA-DQ2.5/33mer gliadin …; experiment: AlphaLISA neutralizing assay: biotinylated HLA-DQ2.5/33mer gliadin peptide complex on acceptor beads, biotinylated D2 TCR on donor beads; blocked ligand: D2 TCR (Example 4.4)
[15] = molecular target: T1, recombinant HLA-DQ2.5/33mer gliadin …; experiment: SPR, Ab captured, 37 C, pH 7.4
[16] = molecular target: T1, recombinant HLA-DQ2.5/33mer gliadin …; experiment: AlphaLISA neutralizing assay: biotinylated HLA-DQ2.5/33mer gliadin peptide complex on acceptor beads, biotinylated D2 TCR on donor beads; blocked ligand: D2 TCR (Example 12)

Binder	IC50 (read off the curve) [1]	Kd [2]	FIG. 30 FACS value (IC17=0, DQN0139bb=100) [3]	FIG. 30 FACS value (IC17=0, DQN0139bb=100) [4]	FIG. 30 FACS value (IC17=0, DQN0139bb=100) [5]	FIG. 30 FACS value (IC17=0, DQN0139bb=100) [6]	FIG. 30 FACS value (IC17=0, DQN0139bb=100) [7]	FIG. 30 FACS value (IC17=0, DQN0139bb=100) [8]	FIG. 30 FACS value (IC17=0, DQN0139bb=100) [9]	FIG. 30 FACS value (IC17=0, DQN0139bb=100) [10]	FIG. 30 FACS value (IC17=0, DQN0139bb=100) [11]	FIG. 30 FACS value (IC17=0, DQN0139bb=100) [12]	FIG. 30 FACS value (IC17=0, DQN0139bb=100) [13]	IC50 (read off the curve) [14]	Kd [15]	IC50 (read off the curve) [16]
B1	~0.3 µg/mL	6.07 nM	106	3.8	68.9	83	0	80.5	79.3	91.2	70.2	65.3	0			
B2		11.4 nM	73.5	28.7	42.6	34.5	3	20.9	7	32.6	48	49.6	4.3	~0.3 µg/mL	13.7 nM	
B3		5.72 nM	65.9	1.2	36.6	45.3	0.4	16.5	2.8	46.4	3.3	5	0.8	~1 µg/mL	6.29 nM	~0.7 µg/mL
B4	~0.3 µg/mL	7.88 nM	108	1.2	62	85.1	-0.1	81.3	75.6	93.5	68.7	77.2	-0.1			
B5	~0.2 µg/mL	6.32 nM	59.2	0.3	79.4	34.9	0	8.2	7.3	26.9	14.5	16.3	0.3			

Source: patent US20230118024A1 (Chugai, published 2023)
